{
  "source": "patent US8652790",
  "about": "(University of Pennsylvania, dated 2014)",
  "key": {"[1]": {"molecular_target": "T1, calcium-saturated calmodulin (human CaM, GenBank AAD45181) (human, UniProt P0DP23 2-149)", "test": "isothermal titration calorimetry, CaM (200 µM) titrated into 5-20 µM peptide, 308 K"}, "[2]": {"molecular_target": "T1, calcium-saturated calmodulin (human …)", "test": "isothermal titration calorimetry, CaM (200 µM) titrated into 5-20 µM peptide, 308 K; footnote c: From Frederick et al."}},
  "data": [
    {"binder": "RKKTFKEVANAVKISASLMG (Synthetic peptide for ITC and for titration of CaM; The expressed version used for target-domain NMR carries an extra amino-terminal GS)", "note": "[eNOS(p), peptide of the calmodulin-binding domain of endothelial nitric oxide synthase]", "values": [
      {"measurement": "-TΔSbinding^total", "setting": "[1]", "result": 6.14, "unit": "kcal/mol"},
      {"measurement": "ΔGbinding^total", "setting": "[1]", "result": -11.8, "unit": "kcal/mol"},
      {"measurement": "ΔHbinding^total", "setting": "[1]", "result": -17.9, "unit": "kcal/mol"}
    ]},
    {"binder": "KRRAIGFKKLAEAVKFSAKLMGQ (Synthetic peptide for ITC and for titration of CaM)", "note": "[nNOS(p), peptide of the calmodulin-binding domain of neuronal nitric oxide synthase]", "values": [
      {"measurement": "-TΔSbinding^total", "setting": "[1]", "result": -0.454, "unit": "kcal/mol"},
      {"measurement": "ΔGbinding^total", "setting": "[1]", "result": -12.4, "unit": "kcal/mol"},
      {"measurement": "ΔHbinding^total", "setting": "[1]", "result": -11.9, "unit": "kcal/mol"}
    ]},
    {"binder": "QTEKMWQRLKGILRSLVKQ (C15S is used to avoid oxidation; also called PDEs(p))", "note": "[PDE(p), peptide of the calmodulin-binding domain of phosphodiesterase (C15S)]", "values": [
      {"measurement": "-TΔSbinding^total", "setting": "[1]", "result": 8.1, "unit": "kcal/mol"},
      {"measurement": "ΔGbinding^total", "setting": "[1]", "result": -9.06, "unit": "kcal/mol"},
      {"measurement": "ΔHbinding^total", "setting": "[1]", "result": -17.2, "unit": "kcal/mol"}
    ]},
    {"binder": "AKSKWKQAFNATAVVRHMRKLQ (Synthetic peptide for ITC and for titration of CaM; The expressed version used for target-domain NMR carries an extra amino-terminal GS; also called CaMK1p)", "note": "[CaMKI(p), peptide of the calmodulin-binding domain of calmodulin kinase I]", "values": [
      {"measurement": "-TΔSbinding^total", "setting": "[2]", "result": 16.6, "unit": "kcal/mol"},
      {"measurement": "ΔGbinding^total", "setting": "[2]", "result": -11.8, "unit": "kcal/mol"},
      {"measurement": "ΔHbinding^total", "setting": "[2]", "result": -28.4, "unit": "kcal/mol"}
    ]}
  ]
}
